B1: SVT02-GS2-SVA12M2-H6 (bispecific antibody)
chain: QVQLQQSGGGSVQAGGSLRLSCVGPQRTFSTYGMGWFRQAPGKEREFVAGINYKGDTTYYADSVKGRFTISRDNAKNTLYLQMDSLKPEDRAVYQCARKGGLGGDYRDAGQYRYWGQGTQVTVSSGGGGSGGGSEVQLVESGGGLVQAGGSLRLSCAASGRTFSYYPMAWFRQAPGQEREFVAAIIGADTTYYADSLKGRFTISRDNAKNMVYLQMNSLKPEDTAVYYCAARNTYWSDVYYREGQYTNWGQGTQVTVSSHHHHHH
B2: SVT06-GS2-SVA12M2-H6 (bispecific antibody)
chain: QVQLQESGGGSVQAGGSLRLSCTASELSYDDYTIAWFRRAAGEGRVEDGEGVASITKSYDRAYDNKINYGHSVKGRFTISRDNAKNTVYLQMTDLLPSDTAVYYCALDITPPGGVGASLTEGFLFDYWGQGTQVTVSSGGGGSGGGSEVQLVESGGGLVQAGGSLRLSCAASGRTFSYYPMAWFRQAPGQEREFVAAIIGADTTYYADSLKGRFTISRDNAKNMVYLQMNSLKPEDTAVYYCAARNTYWSDVYYREGQYTNWGQGTQVTVSSHHHHHH
B3: SVT15-3FW4M-GS2-SVA12M2-H6 (bispecific antibody)
chain: QVQLQESGGGLVQTGGSLRLSCRASGRAFANYHFGWFRQAPGKDREFVASISWKGGSTYYANFALGRFTSSVDRAESSVYLQMSGLTPEDTATYYCAAHDGGDWNYHTGMDYWGQGTQVTVSSGGGGSGGGSEVQLVESGGGLVQAGGSLRLSCAASGRTFSYYPMAWFRQAPGQEREFVAAIIGADTTYYADSLKGRFTISRDNAKNMVYLQMNSLKPEDTAVYYCAARNTYWSDVYYREGQYTNWGQGTQVTVSSHHHHHH

Experiments:
[1] = target: T1, horse albumin (horse Alb) (horse, UniProt P35747 25-607); test: bridging ELISA: cAb-TT2-captured TeNT, SDA, biotinylated horse Alb, StrepPO
T1 sequence (P35747 25-607 limits assumed): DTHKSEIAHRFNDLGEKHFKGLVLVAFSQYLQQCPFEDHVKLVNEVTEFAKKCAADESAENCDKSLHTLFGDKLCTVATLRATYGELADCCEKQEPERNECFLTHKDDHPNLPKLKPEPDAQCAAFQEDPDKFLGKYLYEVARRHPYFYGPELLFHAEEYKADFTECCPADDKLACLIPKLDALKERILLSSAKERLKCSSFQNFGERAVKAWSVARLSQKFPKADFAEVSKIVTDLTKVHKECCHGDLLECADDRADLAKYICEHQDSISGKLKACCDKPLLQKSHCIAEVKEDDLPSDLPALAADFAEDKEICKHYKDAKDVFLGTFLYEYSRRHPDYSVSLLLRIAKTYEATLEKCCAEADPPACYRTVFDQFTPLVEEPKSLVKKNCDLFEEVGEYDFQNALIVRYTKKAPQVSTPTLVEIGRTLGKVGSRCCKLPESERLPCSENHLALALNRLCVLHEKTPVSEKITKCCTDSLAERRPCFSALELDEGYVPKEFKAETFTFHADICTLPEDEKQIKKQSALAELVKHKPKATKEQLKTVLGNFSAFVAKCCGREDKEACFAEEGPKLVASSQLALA

[2] = target: T1, horse albumin (horse Alb); test: as above; remark: listed apart in the source
[3] = target: T2, dog albumin (dog Alb) (dog, UniProt P49822 25-608); test: ELISA: coated dog Alb, anti-his6 PO
T2 construct: also called Canine albumin
T2 sequence (P49822 25-608 limits assumed): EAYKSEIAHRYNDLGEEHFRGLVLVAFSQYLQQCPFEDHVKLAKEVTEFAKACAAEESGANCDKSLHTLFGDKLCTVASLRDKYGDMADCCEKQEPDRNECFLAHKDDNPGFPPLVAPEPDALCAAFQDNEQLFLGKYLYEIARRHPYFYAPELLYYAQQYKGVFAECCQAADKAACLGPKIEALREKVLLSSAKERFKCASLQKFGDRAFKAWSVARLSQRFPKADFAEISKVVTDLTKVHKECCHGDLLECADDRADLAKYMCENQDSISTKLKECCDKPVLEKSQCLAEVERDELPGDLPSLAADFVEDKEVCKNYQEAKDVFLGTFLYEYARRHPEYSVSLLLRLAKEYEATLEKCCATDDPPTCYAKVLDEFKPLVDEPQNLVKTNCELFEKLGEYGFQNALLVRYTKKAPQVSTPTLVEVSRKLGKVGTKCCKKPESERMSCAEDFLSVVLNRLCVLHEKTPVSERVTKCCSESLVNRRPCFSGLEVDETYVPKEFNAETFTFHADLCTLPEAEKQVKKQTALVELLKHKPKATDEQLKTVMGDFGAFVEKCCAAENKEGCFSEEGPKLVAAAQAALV

[4] = target: T2, dog albumin (dog Alb); test: ELISA: coated dog Alb, anti-his6 PO; remark: listed apart in the source
[5] = target: T3, tetanus neurotoxin (TeNT), authentic tetanus holotoxin (Clostridium tetani, UniProt P04958 2-1315); test: bridging ELISA: coated TeNT, SDA, biotinylated TeNT, StrepPO (bivalent binding)
T3 sequence (P04958 2-457 limits assumed, chain 1 of 2): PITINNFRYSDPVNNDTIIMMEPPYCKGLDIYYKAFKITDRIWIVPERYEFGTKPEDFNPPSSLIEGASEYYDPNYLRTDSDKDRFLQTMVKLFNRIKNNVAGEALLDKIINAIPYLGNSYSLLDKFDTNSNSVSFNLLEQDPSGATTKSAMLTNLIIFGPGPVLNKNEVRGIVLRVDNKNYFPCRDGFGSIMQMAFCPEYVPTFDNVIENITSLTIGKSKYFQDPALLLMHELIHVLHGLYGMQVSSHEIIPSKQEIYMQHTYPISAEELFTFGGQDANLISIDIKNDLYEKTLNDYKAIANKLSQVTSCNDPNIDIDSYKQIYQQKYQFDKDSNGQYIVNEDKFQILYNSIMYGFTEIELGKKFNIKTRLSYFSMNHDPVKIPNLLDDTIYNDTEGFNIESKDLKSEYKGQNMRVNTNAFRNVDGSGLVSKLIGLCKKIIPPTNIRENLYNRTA
T3 sequence (P04958 458-1315 limits assumed, chain 2 of 2): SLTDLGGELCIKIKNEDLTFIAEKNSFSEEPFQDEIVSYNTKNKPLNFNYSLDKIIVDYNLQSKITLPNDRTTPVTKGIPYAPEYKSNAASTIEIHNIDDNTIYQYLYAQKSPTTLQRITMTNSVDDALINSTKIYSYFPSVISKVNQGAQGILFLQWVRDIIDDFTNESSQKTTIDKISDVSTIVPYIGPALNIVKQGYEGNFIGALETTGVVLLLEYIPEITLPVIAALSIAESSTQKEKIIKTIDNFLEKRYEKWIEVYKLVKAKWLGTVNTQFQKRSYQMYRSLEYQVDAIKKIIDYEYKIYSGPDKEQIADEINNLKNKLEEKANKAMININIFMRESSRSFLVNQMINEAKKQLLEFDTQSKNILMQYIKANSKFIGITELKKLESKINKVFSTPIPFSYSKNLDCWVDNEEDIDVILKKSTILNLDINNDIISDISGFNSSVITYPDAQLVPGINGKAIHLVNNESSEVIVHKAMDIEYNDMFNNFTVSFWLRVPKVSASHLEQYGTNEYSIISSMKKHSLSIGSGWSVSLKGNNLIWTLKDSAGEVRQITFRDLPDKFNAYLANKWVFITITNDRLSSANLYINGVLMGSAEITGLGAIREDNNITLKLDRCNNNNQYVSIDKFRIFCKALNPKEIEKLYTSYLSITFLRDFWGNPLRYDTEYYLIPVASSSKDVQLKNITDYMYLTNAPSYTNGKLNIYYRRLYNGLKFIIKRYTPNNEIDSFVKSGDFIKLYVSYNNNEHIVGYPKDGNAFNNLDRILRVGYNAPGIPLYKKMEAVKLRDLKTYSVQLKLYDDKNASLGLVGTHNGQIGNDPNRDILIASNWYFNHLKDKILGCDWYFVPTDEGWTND

[6] = target: T3, tetanus neurotoxin (TeNT), authentic …; test: ELISA: directly coated TeNT, goat anti-llama Ig PO
[7] = target: T3, tetanus neurotoxin (TeNT), authentic …; test: ELISA: directly coated TeNT, anti-his6 PO
[8] = target: T3, tetanus neurotoxin (TeNT), authentic …; test: bridging ELISA: coated TeNT, SDA, biotinylated TeNT, StrepPO (bivalent binding); remark: listed apart in the source
[9] = target: T3, tetanus neurotoxin (TeNT), authentic …; test: ELISA: directly coated TeNT, goat anti-llama Ig PO; remark: listed apart in the source
[10] = target: T3, tetanus neurotoxin (TeNT), authentic …; test: ELISA: directly coated TeNT, anti-his6 PO; remark: listed apart in the source
[11] = target: T3, tetanus neurotoxin (TeNT), authentic …; test: GT1b-TeNT inhibition ELISA
[12] = target: T3, tetanus neurotoxin (TeNT), authentic …; test: BLI (Octet Red96): biotinylated TeNT on SA sensor, SDA as analyte
[13] = target: T3, tetanus neurotoxin (TeNT), authentic …; test: GT1b-TeNT inhibition ELISA; remark: listed apart in the source

| Binder | Effective SDA Concentration at A450 0.7 [1] [ng/mL] | maximal absorbance value [2] [A450] | Effective SDA Concentration at A450 0.2 [3] [ng/mL] | maximal absorbance value [4] [A450] | Effective SDA Concentration at A450 0.3 [5] [ng/mL] | Effective SDA Concentration at A450 0.15 [6] [ng/mL] | Effective SDA Concentration at A450 0.15 [7] [ng/mL] | maximal absorbance value [8] [A450] | maximal absorbance value [9] [A450] | maximal absorbance value [10] [A450] | Effective SDA Concentration at A450 0.56 [11] [ng/mL] | Kd [12] [nM] | koff [12] [s⁻¹] | kon [12] [M⁻¹ s⁻¹] | minimal absorbance value (GT1b-TeNT inhibition) [13] [A450] |
| --- | --- | --- | --- | --- | --- | --- | --- | --- | --- | --- | --- | --- | --- | --- | --- |
| B1 | 11 | 1.1 | 13 | 1.91 |  |  |  |  |  |  |  |  |  |  |  |
| B2 | 1.5 | 1.47 | 39 | 1.67 | 19 | 1.1 | 3.5 | 0.66 | 1.21 | 1.59 | 55 | 0.151 | 8.9e-05 | 591000 | 0.18 |
| B3 | 3.9 | 1.34 | 76 | 1.55 | 33 | 2 | 8 | 0.64 | 1.36 | 1.35 | 78 |  |  |  | 0.15 |

Source: US20240376185A1 (SMIVET B V, published 2024)
